The test has as its target full length mesothelin (NM_005823) on target cells (human) (UniProt Q13421). As to the kind of experiment: cell-based or functional assay.

Sequence of full length mesothelin (NM_005823) on target cells (human) (Q13421 other isoform, or with tags, fused parts or gaps limits assumed): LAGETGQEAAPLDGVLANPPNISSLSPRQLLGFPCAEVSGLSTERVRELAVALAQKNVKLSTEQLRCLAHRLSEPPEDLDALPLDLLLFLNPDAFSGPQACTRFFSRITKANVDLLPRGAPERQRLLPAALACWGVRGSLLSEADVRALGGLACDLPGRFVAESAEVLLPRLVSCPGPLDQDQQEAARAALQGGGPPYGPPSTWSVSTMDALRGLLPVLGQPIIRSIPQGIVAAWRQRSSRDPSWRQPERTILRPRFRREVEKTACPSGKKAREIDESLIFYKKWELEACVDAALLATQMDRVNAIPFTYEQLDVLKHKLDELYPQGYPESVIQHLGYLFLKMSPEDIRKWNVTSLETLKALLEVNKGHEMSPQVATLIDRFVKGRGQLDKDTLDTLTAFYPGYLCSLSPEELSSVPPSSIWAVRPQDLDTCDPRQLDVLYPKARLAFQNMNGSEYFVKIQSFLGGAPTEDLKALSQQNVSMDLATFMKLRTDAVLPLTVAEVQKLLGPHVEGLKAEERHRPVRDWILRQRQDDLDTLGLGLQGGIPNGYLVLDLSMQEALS

B1: SD1 CD3ε-TFP (protein, part only; not given: linker and CD3 epsilon subunit, part only)
chain, part: EVQLVESGGGLVQPGGSLRLSCAASGGDWSANFMYWYRQAPGKQRELVARISGRGVVDYVESVKGRFTISRDNSKNTLYLQMNSLRAEDTAVYYCAVASYWGQGTLVTVSS
B1 registered a tumor cell lysis (luciferase assay), E:T 1-to-1, patients 1, 2, 4 and 5 of 50%; a tumor cell lysis (luciferase assay), E:T 1-to-5, patients 4 and 5 of 50%; a tumor cell lysis (luciferase assay), E:T 5-to-1, patient 3 of 35%; a tumor cell lysis (luciferase assay), E:T 5-to-1, patients 1, 2, 4 and 5 of 75 to 97%.

For the origin of these results see patent publication US20220298478A1.
